The record followed here is patent US20210015858A1 (I MAB BIOPHARMA US, published 2021).

Substitutions are numbered along the chain they refer to.

The target in assay [1] is T1, recombinant His-tagged human TIGIT-ECD protein (human, UniProt Q495A1 22-141).
T1 construct: extracellular domain; The ELISA text only says His-tagged human TIGIT; also called His-tagged TIGIT; human TIGIT protein; not shown: His tag
T1 sequence (looked up): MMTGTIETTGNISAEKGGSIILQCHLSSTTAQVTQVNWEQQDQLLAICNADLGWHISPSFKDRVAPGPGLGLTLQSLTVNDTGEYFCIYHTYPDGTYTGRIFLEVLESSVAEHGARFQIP
As to the kind of experiment: SPR (Biacore T200), antibody captured, His-tagged TIGIT-ECD injected. How it is done:
The binding of the antibodies to recombinant His-tagged human TIGIT-ECD protein was examined by Biacore T200 using a capture method. The anti-TIGIT antibodies were captured using anti-human Fc antibody or Protein A which were coated on chip. The serial concentrations of his-tagged human TIGIT-ECD protein (0-8 nM) were injected over capture antibodies at the flow rate of 30 μl/min. The dissociation phases were 600 s or 1200 s.
(Surface plasmon resonance follows binding to a sensor surface in real time, without labels.)

Assay [2] concerns the target T1, recombinant His-tagged human TIGIT-ECD …. In words: SPR affinity ranking (Biacore 8K or T200).
The target of assay [3] is T2, human TIGIT expressed on cell surface (human, UniProt Q495A1 22-244).
T2 sequence (looked up): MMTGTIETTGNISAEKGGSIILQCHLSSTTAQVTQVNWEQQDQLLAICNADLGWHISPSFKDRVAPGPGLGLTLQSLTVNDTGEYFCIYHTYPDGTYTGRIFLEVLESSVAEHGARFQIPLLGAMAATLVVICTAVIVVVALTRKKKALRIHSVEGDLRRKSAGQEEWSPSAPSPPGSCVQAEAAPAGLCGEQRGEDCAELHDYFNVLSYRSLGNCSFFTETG
In words: cell-based or functional assay.

Assay [4] deals with T1, recombinant His-tagged human TIGIT-ECD …. As to the kind of experiment: SPR (Biacore T200), antibody captured, His-tagged TIGIT-ECD injected. As to the method: The anti-TIGIT antibodies were captured using anti-human Fc antibody or Protein A which were coated on the chip. Serial concentrations of His-tagged human TIGIT-ECD protein (0-8 nM) were injected over capture antibodies at the flow rate of 30 μl/min. The dissociation phases were 600 s or 1200 s.
This is another data set of the same source.

The target in assay [5] is T3, His-tagged cyno-TIGIT (cyno, UniProt A0A7N9I9V4 89-209).
T3 construct: also called cyno TIGIT protein; not shown: His tag
T3 sequence (A0A7N9I9V4 entry or part of it): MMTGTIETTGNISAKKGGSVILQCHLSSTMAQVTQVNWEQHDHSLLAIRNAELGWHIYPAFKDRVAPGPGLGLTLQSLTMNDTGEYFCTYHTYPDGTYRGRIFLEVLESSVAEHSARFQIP
In words: ELISA.

The target of assay [6] is T1, recombinant His-tagged human TIGIT-ECD …. In words: SPR affinity ranking (Biacore T200).

B1: 222H4 (antibody, human IgG1, V domains shown)
VH: EVQLQQSGPELVKPGASVKISCKTSGYTFSDYTLHWVKQSHGKNLEWIGGFNPNNGGTNYNQKFKVKASLTIDKSSNTVYMELRSLSSEDSAVYYCARNWAFDYWGQGTTLTVSS
VL: DIVMTQSHKIMSTSLGDRVNITCKASQHVSTAVAWYQQRPGQSPRLLIYSASYRHTGVPDRFTGSGSGTDITFTISSVQTEDLAVYYCQQYYTTPWTFGGGTKLEIK
notes: Mouse hybridoma clone
For B1, in assay [1], the Kd is 0.242 nM, the koff is 0.000453 s⁻¹ and the kon was found to be 1.87e+06 M⁻¹ s⁻¹.

B2: 90D9 (antibody, V domains shown)
VH: EVQLQQSGPELVKPGASVKISCKTSGYTFTENTMHWVKQSHGKSLEWIGGINPNQGGNRNNQKFKGKATLTVDKSSSTAYMELRSLTSEDSAVYYCARSGLRDYAMDYWGQGTSVTVSS
VL: DIVMTQSHKFMSTSVGDRVSITCKASQHVSTAVVWYQQKPGQSPKLLIYSPSYRYTGVPDRFTGSGSGTDFTFTISSVQAEDLAVYYCQQHYSTPWTFGGGTKLEIK
notes: Mouse hybridoma clone; also called 90D9-chimeric
On to B2, for which, in assay [2], the Kd was 0.296 nM, the koff turned out to be 3.25e-05 s⁻¹ and the kon is 110000 M⁻¹ s⁻¹. Also, in assay [1], the Kd came to 0.252 nM, the koff stood at 0.000156 s⁻¹ and the kon amounted to 619000 M⁻¹ s⁻¹. Moreover, the “maximum ADCC activity (LDH release, NK92-CD16a effector cells on Jurkat-TIGIT target cells)” value (shortened to “maximum ADCC activity”) in assay [3] is 50%. For the same molecule, in assay [4], the Kd was found to be 0.374 nM, the koff amounted to 0.000167 s⁻¹ and the on-rate (kon) is 446000 M⁻¹ s⁻¹.

B3: 101E1 (antibody, human IgG1, V domains shown)
VH: DVQLQESGPGLVKPSQSLSLTCTVTGYSITSDYAWNWIRQFPGNKLEWMGYISYSGNTRYNPSLKSRISITRDTSKNQFFLQFNSVTTEDTATYYCSRKYYGSWFPYWGQGTLVTVSA
VL: B2 VL with H28D, S30F, V34A, P51A, K103R
notes: Mouse hybridoma clone; also called 101E1-chimeric
As for B3, in assay [5], the binding result is given as “no binding”. In assay [2], the “apparent Kd (pooled screen)” value stood at 0.487 nM, the “apparent koff (pooled screen)” value was determined as 0.00114 s⁻¹ and the “apparent kon (pooled screen)” value amounted to 2.34e+06 M⁻¹ s⁻¹. Moreover, in assay [1], the “apparent Kd (pooled screen)” value was 0.362 nM, the “apparent koff (pooled screen)” value stood at 0.00105 s⁻¹ and the “apparent kon (pooled screen)” value is 2.9e+06 M⁻¹ s⁻¹. In assay [3], the “maximum ADCC activity” value is 50%. Also, in assay [4], the “apparent Kd (pooled screen)” value was found to be 0.362 nM, the “apparent koff (pooled screen)” value turned out to be 0.00105 s⁻¹ and the “apparent kon (pooled screen)” value stood at 2.9e+06 M⁻¹ s⁻¹.

B4: 101E1HM-1 (antibody, V domains shown)
VH: QVQLQESGPGLVKPSQTLSLTCTVSGYSITDDYAWNWIRQPPGKGLEWMGYISYSGHTKYNPSLKSRVTISRDTSKNQFSLKLSSVTAADTAVYYCARKYYGGWFPRWGQGTLVTVSS
VL: DIQMTQSPSSLSASVGDRVTITCKASQDVFTAVAWYQQKPGKAPKLLIYSASYRPTGVPSRFSGSGSGTDFTFTISSLQPEDFATYYCQQSYSTPWTFGQGTRLEIK
Consider B4, for which, in assay [6], the Kd was 2.15 nM, the koff was determined as 0.00107 s⁻¹ and the kon turned out to be 496000 M⁻¹ s⁻¹.

B5: 101E1HM-2 (antibody, V domains shown)
VH: B4 VH with H57N, K59M, R107I
VL: B4 VL with P55H
Turning to B5, in assay [6], the Kd was 1.48 nM, the koff came to 0.00191 s⁻¹ and the kon amounted to 1.29e+06 M⁻¹ s⁻¹.

B6: 101E1HM-3 (antibody, V domains shown)
VH: B4 VH with H57D, R107V
VL: B4 VL with Y53N, P55N, S91Q
As for B6, in assay [6], the Kd is 0.554 nM, the off-rate constant (koff) was 0.000717 s⁻¹ and the kon turned out to be 1.29e+06 M⁻¹ s⁻¹.

B7: 101E1HM-5 (antibody, V domains shown)
VH: B4 VH with H57I, K59R, R107Q
VL: B4 VL with P55D
As for B7, in assay [6], the Kd came out at 1.29 nM, the off-rate (koff) was 0.00209 s⁻¹ and the kon came to 1.63e+06 M⁻¹ s⁻¹.

B8: 101E1HM-4 (antibody, V domains shown)
VH: B4 VH with K59R, G103S, R107D
VL: B4 VL with P55M
In the case of B8, in assay [6], the Kd is 3.08 nM, the koff was 0.00439 s⁻¹ and the kon was found to be 1.43e+06 M⁻¹ s⁻¹.

B9: 221F11 (antibody, human IgG1, V domains shown)
VH: EIQLQQTGPELVKPGASVNISCKASGYSFTDYIMIWVKQSHGKSLEWIGNIHPYFGNSHYNLKFKGKATLTVDKSSTTAYMQLNSLTSEDSAVYYCARRGITSAHFDYWGQGTTLTVSS
VL: DIVLTQSPASLAVSLGQRATISCRASKSVSTSGYSYMHWYQQKPGQPPKLLIYRASNLESGVPARFSGSGSGTDFTLNIHPVEEEDAATYYCQHSGDLPWTFGGGTKLEIK
notes: Mouse hybridoma clone
With B9, in assay [5], the binding result is given as “no binding”.

B10: 116H8 (antibody, human IgG1, V domains shown)
VH: EFQLQQSGPELVKPGASVKISCRASGYSFTAYSMNWVQQTNGKSLEWIGVINPKFGTINYNQKFKGKATLTVDQSSSAAYIQLNSLTSEDSAVYFCARNGNFAWYFDVWGTGTTVTVSS
VL: DIQMTQSPASLSASVGETVTITCRASENIFSYLAWYQQKQGKSPQLLVYNAKTLPEGVPSRFSGSGSGTQFSLKINSLQSEDFGSYYCQHHYGVPWTFGGGTKLEIK
notes: Mouse hybridoma clone
As for B10, the binding result in assay [5] is “no binding”.

B11: 167F7 (antibody, human IgG1, V domains shown)
VH: B10 VH with G66D, Q74H, I81M
VL: B10 VL with N28S, V48A, K52E, P55A, S85I, Y92F
notes: Mouse hybridoma clone
In the case of B11, in assay [1], the Kd turned out to be 0.024 nM, the koff stood at 0.000107 s⁻¹ and the kon is 4.45e+06 M⁻¹ s⁻¹.

B12: 131A12 (antibody, human IgG1, V domains shown)
VH: B10 VH with I58T, K65R, G66D, Q74H, I81M
VL: B10 VL with V48A, K52E, P55A, N76S, Y92F, K103N
notes: Mouse hybridoma clone
As for B12, the binding result in assay [5] is given as “no binding”.

B13: 143B6 (antibody, human IgG1, V domains shown)
VH: EVQLVESGGGLVMPGGSLKLSCAASGFTFSGFVMSWVRQTPEKRLEWVATINDAGTYTYYSDNLKGRFTISRDNAKNNLYLQMSHLKSEDAGMYYCARDGGLRAWFPYWGPGTLVTVSA
VL: DIQLTQSPASLSASVGETVTITCRASENIYSYLAWYQLKQGKSPQLLVFNTKTLAEGVPSRFSGSGSGTQFSLRIDSLQLEDFGSFYCQHHIGSPRTFGGGTTLEIR
notes: Mouse hybridoma clone
As to B13, the binding result in assay [5] was “no binding”.

B14: 350D10 (antibody, human IgG1, V domains shown)
VH: EVKLVESGGALVQPGGSLKLSCAASGFTFSDYYMYWVRQTPEKRLEWVASITKGGGSTYYPDTLKGRFTISRDNAKNTLYLQMSRLKSEDTDMYYCARQSSYDFVMDYWGQGTSVTVSS
VL: DIVMTQSHKFMSTSVGDRVTITCKASQDVDTAVAWYQQKPGQSPKLLIYWASARHTGVPDRFTGSGSGTDFTLTISNVQSEDLADYFCQQYSNYPLTFGVGTKLELK
notes: Mouse hybridoma clone; also called 350D10-chimeric
Regarding B14, in assay [2], the Kd amounted to 0.0716 nM, the koff worked out at 0.000189 s⁻¹ and the kon amounted to 2.64e+06 M⁻¹ s⁻¹. Moreover, in assay [1], the Kd turned out to be 0.0822 nM, the koff is 0.000154 s⁻¹ and the kon was found to be 1.87e+06 M⁻¹ s⁻¹. Moreover, in assay [3], the “maximum ADCC activity” value is 50%. For the same molecule, in assay [4], the equilibrium dissociation constant (Kd) was determined as 0.0822 nM, the koff amounted to 0.000154 s⁻¹ and the kon came to 1.87e+06 M⁻¹ s⁻¹.

By Kd is commonly meant the free concentration of one partner at which half of the binding sites on the other are occupied at equilibrium, for simple one-to-one binding. Broadly, the koff is a measure of how fast the partners let go of each other. Broadly, the kon is the second-order rate constant of association.
